According to publication PMC4220643, “Localization of the CyanoP binding site on photosystem II by surface plasmon resonance spectroscopy” (Frontiers in Plant Science, 2014):

T1: PsbV (Thermosynechococcus elongatus, UniProt P0A386 27-163)
T1 construct: PsbV of Thermosynechococcus elongatus, without signal peptide; details of expression and purification are in the supplementary material; also called extrinsic PSII subunit PsbV; source: expressed after a published protocol (Andrews et al., 2005), purified as strep-tagged protein
T1 sequence (looked up): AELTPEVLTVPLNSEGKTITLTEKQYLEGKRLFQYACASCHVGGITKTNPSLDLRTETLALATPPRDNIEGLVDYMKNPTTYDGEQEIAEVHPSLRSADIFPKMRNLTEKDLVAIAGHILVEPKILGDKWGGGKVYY

T2: PsbO (Thermosynechococcus elongatus, UniProt P0A431 27-272)
T2 construct: PsbO of Thermosynechococcus elongatus, without signal peptide; Expression vector derived from pIVEX2.4d; tags and purification are told only in the supplementary material; also called extrinsic PSII subunit PsbO; source: E. coli Overexpress C43, purified
T2 sequence (looked up): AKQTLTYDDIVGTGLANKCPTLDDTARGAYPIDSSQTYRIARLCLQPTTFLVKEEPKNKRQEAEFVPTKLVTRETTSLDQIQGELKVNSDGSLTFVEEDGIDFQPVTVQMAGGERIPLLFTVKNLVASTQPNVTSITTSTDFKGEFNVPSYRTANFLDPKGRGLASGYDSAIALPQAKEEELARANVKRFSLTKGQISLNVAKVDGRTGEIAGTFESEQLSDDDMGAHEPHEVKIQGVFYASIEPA

B1: Im7-D1pep (C-terminal peptide of processed D1 fused to Im7) (domain or fragment, Thermosynechococcus elongatus, UniProt P0A444 332-344, looked up)
chain: HERNAHNFPLDLA
notes: C-terminal peptide of processed D1, D1 (PsbA1) of Thermosynechococcus elongatus, residues H332-A344; also called D1 peptide; the 13 C-terminal residues of mature D1; source: cell-free expression (RTS100, 5Prime), purified on the SPR sensor surface via DNase E7; not shown: Im7 (immunity protein 7, with GGSG linker), N-terminal, kept
B2: Im7 fusion protein of PsbU (natural protein, Thermosynechococcus elongatus, UniProt Q9F1L5 31-134, looked up)
chain: ATASTEEELVNVVDEKLGTAYGEKIDLNNTNIAAFIQYRGLYPTLAKLIVKNAPYESVEDVLNIPGLTERQKQILRENLEHFTVTEVETALVEGGDRYNNGLYK
notes: PsbU of Thermosynechococcus elongatus, without signal peptide; PsbU is described only as an Im7 fusion protein; source: E. coli Overexpress C43, purified
B3: Im7-D1a (D1 a-loop fused to Im7) (domain or fragment)
chain: not shown
notes: D1 a-loop, D1 (PsbA1) of Thermosynechococcus elongatus, residues A54-Q113; source: cell-free expression (RTS100, 5Prime), purified on the SPR sensor surface via DNase E7; not shown: Im7 (immunity protein 7, with GGSG linker), N-terminal, kept
B4: Im7-D2 (C-terminal domain of D2 fused to Im7) (domain or fragment)
chain: not shown
notes: luminal C-terminal domain of D2 (PsbD) of Thermosynechococcus elongatus; source: cell-free expression (RTS100, 5Prime), purified on the SPR sensor surface via DNase E7; not shown: Im7 (immunity protein 7, with GGSG linker), N-terminal, kept
B5: CyanoP (natural protein, Thermosynechococcus elongatus, UniProt Q8DH84 20-183, looked up)
chain: CSATSGLQAYVDSYDGYEFLYPRGWVQVQVEDPVDVVFHDIIETTENVSVVVNTVASTKSLEELGSPEEVGDRLLRNIIAPSESGRSSALIAATSQKADDKTYYILEYAVTLPGDGNTAQQRHNLSSIAVSRGKVYTLSVSAPEERWPKVEDQFKTIVSSFTVY
notes: CyanoP of Thermosynechococcus elongatus, without signal peptide; Expression vector derived from pIVEX2.4d; tags and purification are told only in the supplementary material; also called recombinant CyanoP; cyanobacterial homolog of higher plant PsbP; source: E. coli Overexpress C43, purified
B6: Im7-pD1 (C-terminal D1 domain with precursor peptide fused to Im7) (domain or fragment)
chain: not shown
B7: Im7-mD1 (C-terminal D1 domain in its processed form fused to Im7) (domain or fragment)
chain: not shown
B8: Im7-CP43 (e-loop of CP43 fused to Im7) (domain or fragment)
chain: not shown
notes: luminal e-loop of CP43 (PsbC) of Thermosynechococcus elongatus; source: cell-free expression (RTS100, 5Prime), purified on the SPR sensor surface via DNase E7; not shown: Im7 (immunity protein 7, with GGSG linker), N-terminal, kept

Legend:
Details in all cases: both partners purified
CyanoP = target: B5; test: SPR; Biacore3000, CM5 chip with covalently bound DNase E7; Im7-tagged luminal PSII domain captured from the cell-free reaction mixture (on-chip purification); reference surface with Im7, both surfaces saturated with purified Im7; soluble protein injected as analyte in triplicate; steady state responses fitted to a one site binding isotherm
PsbV [1] = target: T1, PsbV; test: SPR; Biacore3000, CM5 chip coated with DNase E7; extrinsic proteins as Im7 fusion proteins overexpressed in E. coli; who was immobilised is not told in the main text; details in the supplementary material
PsbO = target: T2, PsbO; test: SPR; Biacore3000, CM5 chip with covalently bound DNase E7; Im7-tagged luminal PSII domain captured from the cell-free reaction mixture (on-chip purification); reference surface with Im7, both surfaces saturated with purified Im7; soluble protein injected as analyte in triplicate; steady state responses fitted to a one site binding isotherm
[2] = target: T3, Im7-CP47 (e-loop of CP47 fused to Im7) (Thermosynechococcus elongatus, UniProt Q8DIQ1 255-450); test: as above
T3 construct: luminal e-loop of CP47 (PsbB) of Thermosynechococcus elongatus; source: cell-free expression (RTS100, 5Prime), purified on the SPR sensor surface via DNase E7; not shown: Im7 (immunity protein 7, with GGSG linker), N-terminal, kept
T3 sequence (Q8DIQ1 255-450): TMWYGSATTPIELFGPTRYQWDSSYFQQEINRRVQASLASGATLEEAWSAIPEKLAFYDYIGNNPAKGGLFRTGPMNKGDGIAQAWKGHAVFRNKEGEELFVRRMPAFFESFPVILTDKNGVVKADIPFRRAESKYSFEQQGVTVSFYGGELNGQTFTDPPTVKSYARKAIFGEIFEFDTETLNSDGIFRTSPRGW

PsbV [3] = target: T1, PsbV; test: as above

| Binder | Kd (CyanoP) [µM] | Kd (PsbO) [µM] | further results |
| --- | --- | --- | --- |
| B1 | 100 to 150 | – | – |
| B2 | – | – | Kd (PsbV [1]): 146 µM |
| B3 | 16.2 | 50 to 100 | – |
| B4 | 5.2 | ~50 | – |
| B5 | – | – | Kd [2]: 91 µM |
| B6 | 76 | – | – |
| B7 | 74 | – | – |
| B8 | 55 | ~50 | Kd (PsbV [3]): 26 µM |
